Measured values: patent US20160031998A1 (CSL, published 2016)

T1: soluble hG-CSFR: amino acids 25-335 of Homo sapiens G-CSFR with mutations C78A, C163S and C228S and a … (Homo sapiens, UniProt Q99062 25-335)
T1 chain: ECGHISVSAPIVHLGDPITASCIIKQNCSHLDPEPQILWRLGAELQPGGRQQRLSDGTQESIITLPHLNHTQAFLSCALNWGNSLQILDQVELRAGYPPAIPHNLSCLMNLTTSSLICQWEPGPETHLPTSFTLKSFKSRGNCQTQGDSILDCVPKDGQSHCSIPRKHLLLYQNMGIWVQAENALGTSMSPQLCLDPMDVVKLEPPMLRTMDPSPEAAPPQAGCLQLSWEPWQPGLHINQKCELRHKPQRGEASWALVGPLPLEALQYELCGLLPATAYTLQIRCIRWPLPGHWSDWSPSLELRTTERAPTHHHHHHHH

T2: human G-CSFR expressed on cells (Homo sapiens, UniProt Q99062 25-836)
T2 sequence: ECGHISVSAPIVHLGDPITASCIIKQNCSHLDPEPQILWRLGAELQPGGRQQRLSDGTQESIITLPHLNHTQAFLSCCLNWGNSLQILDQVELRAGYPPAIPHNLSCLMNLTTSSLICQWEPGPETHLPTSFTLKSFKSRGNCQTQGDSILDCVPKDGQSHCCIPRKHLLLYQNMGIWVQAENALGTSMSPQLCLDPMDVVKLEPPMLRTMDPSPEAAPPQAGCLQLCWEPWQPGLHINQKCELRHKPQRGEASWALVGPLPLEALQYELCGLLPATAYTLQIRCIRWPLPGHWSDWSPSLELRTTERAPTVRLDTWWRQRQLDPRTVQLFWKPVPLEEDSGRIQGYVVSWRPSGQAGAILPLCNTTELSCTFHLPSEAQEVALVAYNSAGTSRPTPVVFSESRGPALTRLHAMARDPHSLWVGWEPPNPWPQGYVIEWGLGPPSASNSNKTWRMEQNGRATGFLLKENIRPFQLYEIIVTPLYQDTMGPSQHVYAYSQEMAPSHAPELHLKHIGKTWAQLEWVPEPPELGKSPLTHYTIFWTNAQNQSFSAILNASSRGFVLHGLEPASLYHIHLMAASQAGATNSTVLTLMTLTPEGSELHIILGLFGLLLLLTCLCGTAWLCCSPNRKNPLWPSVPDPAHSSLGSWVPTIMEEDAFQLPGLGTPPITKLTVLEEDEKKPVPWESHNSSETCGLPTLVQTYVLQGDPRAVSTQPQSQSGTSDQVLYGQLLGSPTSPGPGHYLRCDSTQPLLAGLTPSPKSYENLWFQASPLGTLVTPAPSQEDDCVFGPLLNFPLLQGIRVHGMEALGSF


Experiments:
[1] = biological target: T1, soluble hG-CSFR: amino acids 25-335 of …; assay: SPR (Biacore), mAb captured by anti-human IgG, soluble hG-CSFR injected
Experimental: Soluble hG-CSFR was injected for 5 minutes and dissociation was monitored for 30 minutes. Responses from a reference flow cell (in which mAb was not captured, but otherwise treated identically), were subtracted. The responses from a blank injection were then subtracted from the resultant sensorgrams.
The final corrected responses were fitted using non-linear regression to a model describing 1:1 kinetics, including a term for mass transport limitation. The Rmax value was fitted locally, to account for slight deviations in the level of mAb captured. Association rate (ka), dissociation rate (kd) and equilibrium dissociation constant (KD) were determined.

[2] = biological target: T2, human G-CSFR expressed on cells; assay: cell-based or functional assay

Row | Binder | Kd [1] [nM] | IC50 (nM), inhibition of G-CSF-mediated proliferation of BaF3 cells [2] [nM]
1 | C1.2G-44 (antibody, human IgG4, V domains shown, HCDR3 wt (VH of C1.2G); also called antibody 44) VH: EVQLLESGGGLVQPGGSLRLSCAASGFTFSLYWMGWVRQAPGKGLEWVSSISSSGGVTPYADSVKGRFTISRDNSKNTLYLQMNSLRAEDTAVYYCAKLGELGWFDPWGQGTLVTVSS VL: DIQMTQSPSSLSASVGDRVTITCRASQGISSYLNWYQQKPGKAPKLLIYYASNLQNGVPSRFSGSGSGTDFTLTISSLQPEDFATYYCQQSYSYPQKFGGGTKVEIK | 0.0733 | 0.39
2 | C1.2G-56 (antibody, human IgG4, V domains shown, HCDR3 wt (VH of C1.2G); also called antibody 56) VH: EVQLLESGGGLVQPGGSLRLSCAASGFTFSLYWMGWVRQAPGKGLEWVSSISSSGGVTPYADSVKGRFTISRDNSKNTLYLQMNSLRAEDTAVYYCAKLGELGWFDPWGQGTLVTVSS VL: DIQMTQSPSSLSASVGDRVTITCRASQGISSYLNWYQQKPGKAPKLLIYYASNLQNGVPSRFSGSGSGTDFTLTISSLQPEDFATYYCQQSYMYPIKFGGGTKVEIK | 0.0993 | 0.22
3 | C1.2G-63 (antibody, human IgG4, V domains shown, HCDR3 wt (VH of C1.2G); also called antibody 63) VH: EVQLLESGGGLVQPGGSLRLSCAASGFTFSLYWMGWVRQAPGKGLEWVSSISSSGGVTPYADSVKGRFTISRDNSKNTLYLQMNSLRAEDTAVYYCAKLGELGWFDPWGQGTLVTVSS VL: DIQMTQSPSSLSASVGDRVTITCRASQGISSYLNWYQQKPGKAPKLLIYYASNLQNGVPSRFSGSGSGTDFTLTISSLQPEDFATYYCANSWGYPLTFGGGTKVEIK | 0.161 | 0.26
4 | C1.2G-75 (antibody, human IgG4, V domains shown, HCDR3 wt (VH of C1.2G); also called antibody 75) VH: EVQLLESGGGLVQPGGSLRLSCAASGFTFSLYWMGWVRQAPGKGLEWVSSISSSGGVTPYADSVKGRFTISRDNSKNTLYLQMNSLRAEDTAVYYCAKLGELGWFDPWGQGTLVTVSS VL: DIQMTQSPSSLSASVGDRVTITCRASQGISSYLNWYQQKPGKAPKLLIYYASNLQNGVPSRFSGSGSGTDFTLTISSLQPEDFATYYCEESMNYPLTFGGGTKVEIK | 0.211 | –
5 | C1.2G-77 (antibody, human IgG4, V domains shown, HCDR3 wt (VH of C1.2G); also called antibody 77) VH: EVQLLESGGGLVQPGGSLRLSCAASGFTFSLYWMGWVRQAPGKGLEWVSSISSSGGVTPYADSVKGRFTISRDNSKNTLYLQMNSLRAEDTAVYYCAKLGELGWFDPWGQGTLVTVSS VL: DIQMTQSPSSLSASVGDRVTITCRASQGISSYLNWYQQKPGKAPKLLIYYASNLQNGVPSRFSGSGSGTDFTLTISSLQPEDFATYYCEQGWNYPLTFGGGTKVEIK | 0.107 | 0.23
6 | C1.2G-94 (antibody, human IgG4, V domains shown, HCDR3 wt (VH of C1.2G); also called antibody 94) VH: EVQLLESGGGLVQPGGSLRLSCAASGFTFSLYWMGWVRQAPGKGLEWVSSISSSGGVTPYADSVKGRFTISRDNSKNTLYLQMNSLRAEDTAVYYCAKLGELGWFDPWGQGTLVTVSS VL: DIQMTQSPSSLSASVGDRVTITCRASQGISSYLNWYQQKPGKAPKLLIYYASNLQNGVPSRFSGSGSGTDFTLTISSLQPEDFATYYCQQSWVYPAWFGGGTKVEIK | 0.189 | –
7 | C1.2G-814 (antibody, human IgG4, V domains shown, HCDR3 wt (VH of C1.2G); also called antibody 814) VH: EVQLLESGGGLVQPGGSLRLSCAASGFTFSLYWMGWVRQAPGKGLEWVSSISSSGGVTPYADSVKGRFTISRDNSKNTLYLQMNSLRAEDTAVYYCAKLGELGWFDPWGQGTLVTVSS VL: DIQMTQSPSSLSASVGDRVTITCRASQGISSYLNWYQQKPGKAPKLLIYYASNLQNGVPSRFSGSGSGTDFTLTISSLQPEDFATYYCSQSMEYPLTFGGGTKVEIK | 0.221 | –
8 | C1.2G-852 (antibody, human IgG4, V domains shown, LCDR3 wt (VL of C1.2G); also called antibody 852) VH: EVQLLESGGGLVQPGGSLRLSCAASGFTFSLYWMGWVRQAPGKGLEWVSSISSSGGVTPYADSVKGRFTISRDNSKNTLYLQMNSLRAEDTAVYYCAKLGELGHSLAWGQGTLVTVSS VL: DIQMTQSPSSLSASVGDRVTITCRASQGISSYLNWYQQKPGKAPKLLIYYASNLQNGVPSRFSGSGSGTDFTLTISSLQPEDFATYYCQQSYSTPLTFGGGTKVEIK | 0.292 | –
9 | C1.2G-870 (antibody, human IgG4, V domains shown, HCDR3 wt (VH of C1.2G); also called antibody 870) VH: EVQLLESGGGLVQPGGSLRLSCAASGFTFSLYWMGWVRQAPGKGLEWVSSISSSGGVTPYADSVKGRFTISRDNSKNTLYLQMNSLRAEDTAVYYCAKLGELGWFDPWGQGTLVTVSS VL: DIQMTQSPSSLSASVGDRVTITCRASQGISSYLNWYQQKPGKAPKLLIYYASNLQNGVPSRFSGSGSGTDFTLTISSLQPEDFATYYCQQSWMYHKIFGGGTKVEIK | 0.367 | –
10 | C1.2G-877 (antibody, human IgG4, V domains shown, HCDR3 wt (VH of C1.2G); also called antibody 877) VH: EVQLLESGGGLVQPGGSLRLSCAASGFTFSLYWMGWVRQAPGKGLEWVSSISSSGGVTPYADSVKGRFTISRDNSKNTLYLQMNSLRAEDTAVYYCAKLGELGWFDPWGQGTLVTVSS VL: DIQMTQSPSSLSASVGDRVTITCRASQGISSYLNWYQQKPGKAPKLLIYYASNLQNGVPSRFSGSGSGTDFTLTISSLQPEDFATYYCQQSFRYPFYFGGGTKVEIK | 0.508 | –
11 | C1.2G-975 (antibody, human IgG4, V domains shown, also called antibody 975) VH: EVQLLESGGGLVQPGGSLRLSCAASGFTFSLYWMGWVRQAPGKGLEWVSSISSSGGVTPYADSVKGRFTISRDNSKNTLYLQMNSLRAEDTAVYYCAKLGELGQSMLWGQGTLVTVSS VL: DIQMTQSPSSLSASVGDRVTITCRASQGISSYLNWYQQKPGKAPKLLIYYASNLQNGVPSRFSGSGSGTDFTLTISSLQPEDFATYYCQQSWQIKLKFGGGTKVEIK | 0.209 | –
12 | C1.2G-973 (antibody, human IgG4, V domains shown, also called antibody 973) VH: EVQLLESGGGLVQPGGSLRLSCAASGFTFSLYWMGWVRQAPGKGLEWVSSISSSGGVTPYADSVKGRFTISRDNSKNTLYLQMNSLRAEDTAVYYCAKLGELGQMVYWGQGTLVTVSS VL: DIQMTQSPSSLSASVGDRVTITCRASQGISSYLNWYQQKPGKAPKLLIYYASNLQNGVPSRFSGSGSGTDFTLTISSLQPEDFATYYCQQSFKYPMTFGGGTKVEIK | 0.23 | –
13 | C1.2G-977 (antibody, human IgG4, V domains shown, also called antibody 977) VH: EVQLLESGGGLVQPGGSLRLSCAASGFTFSLYWMGWVRQAPGKGLEWVSSISSSGGVTPYADSVKGRFTISRDNSKNTLYLQMNSLRAEDTAVYYCAKLGELGEIREWGQGTLVTVSS VL: DIQMTQSPSSLSASVGDRVTITCRASQGISSYLNWYQQKPGKAPKLLIYYASNLQNGVPSRFSGSGSGTDFTLTISSLQPEDFATYYCQQSWVYHLPFGGGTKVEIK | 0.246 | –
14 | C1.2G-984 (antibody, human IgG4, V domains shown, also called antibody 984) VH: EVQLLESGGGLVQPGGSLRLSCAASGFTFSLYWMGWVRQAPGKGLEWVSSISSSGGVTPYADSVKGRFTISRDNSKNTLYLQMNSLRAEDTAVYYCAKLGELGMMQSWGQGTLVTVSS VL: DIQMTQSPSSLSASVGDRVTITCRASQGISSYLNWYQQKPGKAPKLLIYYASNLQNGVPSRFSGSGSGTDFTLTISSLQPEDFATYYCQQSIEYPAHFGGGTKVEIK | 0.25 | –
15 | C1.2G-996 (antibody, human IgG4, V domains shown, also called antibody 996) VH: EVQLLESGGGLVQPGGSLRLSCAASGFTFSLYWMGWVRQAPGKGLEWVSSISSSGGVTPYADSVKGRFTISRDNSKNTLYLQMNSLRAEDTAVYYCAKLGELGQYMGWGQGTLVTVSS VL: DIQMTQSPSSLSASVGDRVTITCRASQGISSYLNWYQQKPGKAPKLLIYYASNLQNGVPSRFSGSGSGTDFTLTISSLQPEDFATYYCQQSMWMPIFFGGGTKVEIK | 0.336 | –
16 | C1.2G-43 (antibody, human IgG4, V domains shown, also called antibody 43) VH: EVQLLESGGGLVQPGGSLRLSCAASGFTFSLYWMGWVRQAPGKGLEWVSSISSSGGVTPYADSVKGRFTISRDNSKNTLYLQMNSLRAEDTAVYYCAKLGELGQFMRWGQGTLVTVSS VL: DIQMTQSPSSLSASVGDRVTITCRASQGISSYLNWYQQKPGKAPKLLIYYASNLQNGVPSRFSGSGSGTDFTLTISSLQPEDFATYYCQQSIGYPGSFGGGTKVEIK | 0.336 | –
17 | C1.2G-999 (antibody, human IgG4, V domains shown, also called antibody 999) VH: EVQLLESGGGLVQPGGSLRLSCAASGFTFSLYWMGWVRQAPGKGLEWVSSISSSGGVTPYADSVKGRFTISRDNSKNTLYLQMNSLRAEDTAVYYCAKLGELGMFHKWGQGTLVTVSS VL: DIQMTQSPSSLSASVGDRVTITCRASQGISSYLNWYQQKPGKAPKLLIYYASNLQNGVPSRFSGSGSGTDFTLTISSLQPEDFATYYCQQSWEYAMFFGGGTKVEIK | 0.356 | –
